The record followed here is paper doi:10.1101/2022.01.11.475809, “HP1β Chromo Shadow Domain facilitates H2A ubiquitination for BRCA1 recruitment at DNA double-strand breaks” (bioRxiv, 2022).

The experiment has as its target T1, FL-RING1A (1–406aa), recombinant (human, UniProt Q06587 1-406).
T1 construct: Human RING1A, full length, residues 1-406; Subcloned into the bacterial expression 1GFP vector (Addgene #29663, the vector's id); purification as in Hambarde et al., 2021 with other buffers; also called RING1A-FL; Human FL-RING1A; source: bacterial expression vector, purified (HisTrap, TEV cleavage, Superdex 75)
T1 sequence (looked up): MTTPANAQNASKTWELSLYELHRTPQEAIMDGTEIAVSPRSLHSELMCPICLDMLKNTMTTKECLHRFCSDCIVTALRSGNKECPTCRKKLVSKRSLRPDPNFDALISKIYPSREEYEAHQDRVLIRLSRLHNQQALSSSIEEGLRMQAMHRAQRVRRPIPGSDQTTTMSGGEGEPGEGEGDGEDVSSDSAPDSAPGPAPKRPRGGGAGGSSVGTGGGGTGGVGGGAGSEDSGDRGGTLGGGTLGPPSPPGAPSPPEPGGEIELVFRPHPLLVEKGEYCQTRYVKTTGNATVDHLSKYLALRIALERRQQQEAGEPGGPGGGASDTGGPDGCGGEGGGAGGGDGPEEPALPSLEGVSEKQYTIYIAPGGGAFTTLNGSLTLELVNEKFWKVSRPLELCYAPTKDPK
Description: pull-down; FL-RING1A incubated with His6-CSD HP1β at molar ratio 1:2 in buffer H (20 mM Tris pH 8, 70 mM NaCl, 5% glycerol, 5 mM BME, 100 µM ZnCl2) on ice for 20 min; Ni-NTA resin, elution with 300 mM imidazole; SDS-PAGE and western blot. To be noted: both partners purified.

B1: His6-CSD HP1β (80–185aa), recombinant (domain or fragment)
chain: not shown
notes: HP1β residues 80-185 (hinge part and chromo shadow domain); 'Human' is printed before the two constructs of the sentence; Subcloned into the bacterial expression 1B vector (Addgene #29653, the vector's id); source: bacterial expression vector, purified (HisTrap, Superdex 75)
Consider B1, for which the binding result was “binds”.
